T1: mouse CD40 extracellular domain expressed with a C-terminal myc-myc-hexahistidine tag (mouse)
T1 construct: also called mCD40-MMH; REGN3098
T1 chain: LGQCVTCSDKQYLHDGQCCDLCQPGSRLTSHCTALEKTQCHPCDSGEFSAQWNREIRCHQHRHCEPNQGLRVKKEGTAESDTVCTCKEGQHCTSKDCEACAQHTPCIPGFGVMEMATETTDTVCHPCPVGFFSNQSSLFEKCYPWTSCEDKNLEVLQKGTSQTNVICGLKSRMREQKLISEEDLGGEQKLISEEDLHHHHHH

B1: REGN16431 (bispecific antibody, human IgG4 S228P, kappa)
heavy 1: QLQLQESGPGLVRPSETLSLTCSVSGASMNTNNYYWGWIRQPPGKGLEWIGSGYYNGNTYYNPSLKSRVTISVDTSKNQFSLKLNSVTAADTAVYYCARQTPPRIIGSPNIWGQGTMVTVSSASTKGPSVFPLAPCSRSTSESTAALGCLVKDYFPEPVTVSWNSGALTSGVHTFPAVLQSSGLYSLSSVVTVPSSSLGTKTYTCNVDHKPSNTKVDKRVESKYGPPCPPCPAPPVAGPSVFLFPPKPKDTLMISRTPEVTCVVVDVSQEDPEVQFNWYVDGVEVHNAKTKPREEQFNSTYRVVSVLTVLHQDWLNGKEYKCKVSNKGLPSSIEKTISKAKGQPREPQVYTLPPSQEEMTKNQVSLTCLVKGFYPSDIAVEWESNGQPENNYKTTPPVLDSDGSFFLYSRLTVDKSRWQEGNVFSCSVMHEALHNHYTQKSLSLSLGK
heavy 2: EVQLVESGGGLVQPGGSLRLSCAASGFTFGSYGMAWVRQAPGKGLEWVSAISGSGDYTNYADSVKRRFTISRDNSKNTLYLQMSSLRAEDTAVYYCAKEKTGTTGYLYSGMDVWGQGTTVTVSSASTKGPSVFPLAPCSRSTSESTAALGCLVKDYFPEPVTVSWNSGALTSGVHTFPAVLQSSGLYSLSSVVTVPSSSLGTKTYTCNVDHKPSNTKVDKRVESKYGPPCPPCPAPPVAGPSVFLFPPKPKDTLMISRTPEVTCVVVDVSQEDPEVQFNWYVDGVEVHNAKTKPREEQFNSTYRVVSVLTVLHQDWLNGKEYKCKVSNKGLPSSIEKTISKAKGQPREPQVYTLPPSQEEMTKNQVSLTCLVKGFYPSDIAVEWESNGQPENNYKTTPPVLDSDGSFFLYSRLTVDKSRWQEGNVFSCSVMHEALHNRFTQKSLSLSPGK
light: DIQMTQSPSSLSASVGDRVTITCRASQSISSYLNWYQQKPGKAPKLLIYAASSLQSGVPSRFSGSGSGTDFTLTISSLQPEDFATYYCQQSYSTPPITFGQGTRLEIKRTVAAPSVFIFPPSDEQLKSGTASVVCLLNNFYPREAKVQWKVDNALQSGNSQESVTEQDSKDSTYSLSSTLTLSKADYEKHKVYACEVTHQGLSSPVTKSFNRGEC
notes: D1 arm from 21519P2, D2 arm from 21520P2, common light chain; also called CD40xCD40 (21519 x 21520)
B2: REGN16432 (bispecific antibody, human IgG4 S228P, kappa)
heavy 1: EVQLVESGGGLVQPGGSLRLSCAASGFTFSSYAMNWVRQAPGKGLEWVSIISGTIGKTYYADSVKGRFTISRDNSKNTLYLQMNSLRGEDTAVYYCAKDTERDITGSPFDYWGQGTLVTVSSASTKGPSVFPLAPCSRSTSESTAALGCLVKDYFPEPVTVSWNSGALTSGVHTFPAVLQSSGLYSLSSVVTVPSSSLGTKTYTCNVDHKPSNTKVDKRVESKYGPPCPPCPAPPVAGPSVFLFPPKPKDTLMISRTPEVTCVVVDVSQEDPEVQFNWYVDGVEVHNAKTKPREEQFNSTYRVVSVLTVLHQDWLNGKEYKCKVSNKGLPSSIEKTISKAKGQPREPQVYTLPPSQEEMTKNQVSLTCLVKGFYPSDIAVEWESNGQPENNYKTTPPVLDSDGSFFLYSRLTVDKSRWQEGNVFSCSVMHEALHNHYTQKSLSLSLGK
heavy 2: B1 heavy 2
light: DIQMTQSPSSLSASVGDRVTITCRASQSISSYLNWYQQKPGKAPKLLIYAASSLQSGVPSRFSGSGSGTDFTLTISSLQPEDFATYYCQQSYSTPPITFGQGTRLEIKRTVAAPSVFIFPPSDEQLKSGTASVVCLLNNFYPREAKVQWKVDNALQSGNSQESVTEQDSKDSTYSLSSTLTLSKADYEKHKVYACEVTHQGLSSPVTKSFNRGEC
notes: D1 arm from 30027P2, D2 arm from 21520P2, common light chain; also called CD40xCD40 (30027 x 21520)
B3: 21519P2 (antibody, human IgG4 S228P, kappa, V domains shown)
VH: QLQLQESGPGLVRPSETLSLTCSVSGASMNTNNYYWGWIRQPPGKGLEWIGSGYYNGNTYYNPSLKSRVTISVDTSKNQFSLKLNSVTAADTAVYYCARQTPPRIIGSPNIWGQGTMVTVSS
VL: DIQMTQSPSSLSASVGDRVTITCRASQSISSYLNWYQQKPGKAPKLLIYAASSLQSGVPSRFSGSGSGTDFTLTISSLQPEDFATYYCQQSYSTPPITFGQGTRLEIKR
notes: parental bivalent anti-CD40 mAb; common light chain; also called H4sH21519P2
B4: 21520P2 (antibody, human IgG4 S228P, kappa, V domains shown)
VH: EVQLVESGGGLVQPGGSLRLSCAASGFTFGSYGMAWVRQAPGKGLEWVSAISGSGDYTNYADSVKRRFTISRDNSKNTLYLQMSSLRAEDTAVYYCAKEKTGTTGYLYSGMDVWGQGTTVTVSS
VL: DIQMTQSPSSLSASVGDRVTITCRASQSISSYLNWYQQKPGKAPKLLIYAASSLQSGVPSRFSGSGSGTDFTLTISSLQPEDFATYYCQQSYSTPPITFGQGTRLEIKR
notes: parental bivalent anti-CD40 mAb; common light chain; also called H4sH21520P2
B5: 30027P2 (antibody, human IgG4 S228P, kappa, V domains shown)
VH: EVQLVESGGGLVQPGGSLRLSCAASGFTFSSYAMNWVRQAPGKGLEWVSIISGTIGKTYYADSVKGRFTISRDNSKNTLYLQMNSLRGEDTAVYYCAKDTERDITGSPFDYWGQGTLVTVSS
VL: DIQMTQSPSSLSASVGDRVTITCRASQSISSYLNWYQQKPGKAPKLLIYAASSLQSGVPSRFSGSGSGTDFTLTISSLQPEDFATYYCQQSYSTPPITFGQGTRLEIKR
notes: parental bivalent anti-CD40 mAb; common light chain; also called H4sH30027P2

Legend:
[1] = target: T2, human CD40 (hCD40) expressed on cells (human, UniProt P25942 21-277); assay: cell-based or functional assay
[2] = target: T2, human CD40 (hCD40) expressed on cells; assay: cell-based or functional assay; remark: listed apart in the source
[3] = target: T3, human CD40 extracellular domain expressed with a C-terminal myc-myc-hexahistidine tag (human); assay: SPR Biacore 4000, mAb captured, 37C
T3 construct: also called hCD40-MMH; hCD40-mmH
Description: (§1) The equilibrium dissociation constants (KD) for anti-CD40 bivalent and bispecific monoclonal antibodies (mAbs) were determined using a real-time surface plasmon resonance (SPR)-based Biacore 4000 biosensor. All binding studies were performed in 10 mM HEPES, 150 mM NaCl, 3 mM EDTA, and 0.05% v/v surfactant Tween-20, pH 7.4 (HBS-ET) running buffer at 25° C. and 37° C. The Biacore CM5 sensor surface was first derivatized by amine coupling with a monoclonal mouse anti-human Fc antibody (REGN2567) to capture anti-CD40 bivalent parental and anti-CD40×CD40 bispecific antibodies. Different concentrations of CD40 reagents, human CD40 extracellular domain expressed with a C-terminal myc-myc-hexahistidine tag (SEQ ID NO: 1114) (“hCD40-MMH”; REGN3094; SEQ ID NO: 53), monkey CD40 extracellular domain expressed with a C-terminal myc-myc-hexahistidine tag (SEQ ID NO: 1114) (“mfCD40-MMH”; REGN3097; SEQ ID NO: 54), and mouse CD40 extracellular domain expressed with a C-terminal myc-myc-hexahistidine tag (SEQ ID NO: 1114) (“mCD40-MMH”; REGN3098; SEQ ID NO: 55), at concentrations ranging from 3.7 nM to 100 nM or 3.3 nM to 90 nM in a series of 3-fold dilutions prepared in HBS-ET running buffer were injected at a flow rate of 30 μL/min for 4 minutes or 50 μL/min for 5 minutes. The dissociation of different CD40 reagents bound to anti-CD40 bivalent parental and anti-CD40×CD40 bispecific antibodies was monitored for 10 minutes in HBS-ET running buffer. At the end of each cycle, the anti-CD40 bivalent parental and anti-CD40×CD40 bispecific antibodies capture surface was regenerated using a 12 sec injection of 20 mM H₃PO₄.
(§2) The association rate (ka) and dissociation rate (kd) were determined by fitting the real-time binding sensorgrams to a 1:1 binding model with mass transport limitation using Scrubber 2.0c curve-fitting software. Binding dissociation equilibrium constant (KD) and dissociative half-life (t_{1/2}) were calculated from the kinetic rates as: KD(M)=kd/kₐ, and t_{1/2} (min)=[ln(2)/(60*kd)].

[4] = target: T2, human CD40 (hCD40) expressed on cells; assay: flow cytometry, Ramos 2G6.4C10 cells
Description: (§3) Cells were washed with 2% FBS (w/v) in 1×PBS (flow cytometry staining buffer) by centrifugation with benchtop Centrifuge 5810R (Eppendorf®, Hamburg, Germany). Cells were incubated for 30 minutes at 4° C. with serial dilutions of following antibodies ranging from 1.7 pM to 100 nM in flow cytometry staining buffer (1) anti-CD40×CD40 bispecific antibodies, or (2) parental anti-CD40 antibodies (bivalent antibodies comprising 2 fragment antigen-binding [Fab] arms identical to one of the two anti-CD40 Fab of bispecific anti-CD40×CD40 antibodies), or (3) anti-CD40×Irrelevant antibodies (bivalent antibodies that incorporate one Fab arm identical to one of anti-CD40 Fab of anti-CD40×CD40 antibodies and another Fab arm specific to an irrelevant antigen, i.e. birch pollen main allergen Bet v1), or (4) human IgG4 isotype control antibodies with Fc mutation. After washing, cell bound antibodies were detected with 2.5 μg/ml Allophycocyanin (APC)-conjugated goat anti-human IgG antibody specific for the Fcγ fragment (Jackson Immunoresearch, West Grove, PA) for 30 minutes at 4° C. Cells were washed and subsequently fixed with 50% solution of Cytofix™ Fixation Buffer (BD, Franklin Lakes, NJ) in flow cytometry staining buffer for 20 minutes at room temperature. Cells were washed and resuspended in flow cytometry staining buffer and stored at 4° C. for downstream flow cytometry analysis.
(§4) Acquisition of fluorescence signals were recorded on the ZE5 Cell Analyzer (Bio-Rad, Hercules, CA) according to the manufacturer's recommended procedure and flow cytometry data analysis was performed using the open-source R packages flowCore, flowStats, flowDensity, ggCyto, and flowAI. Multiplexed samples were deconvoluted and individual cell populations were identified based on their unique CellTrace™ fluorescence signature. APC Median Fluorescence intensity (MFI) was recorded to indicate the binding intensity of each antibody over a range of concentrations. Antibodies with MFI greater than 1500 at the highest tested concentration (100 nM) were classified as specific binders. In addition, direct binding signals (APC MFI) were analyzed as a function of the antibody concentration and data were fitted with a sigmoidal (four-parameter logistic) dose-response model using GraphPad Prism™ software.

[5] = target: T4, Macaca fascicularis CD40 (mfCD40) expressed on HEK293/D9/mfCD40 cells (Macaca fascicularis, UniProt G7PG38 21-278); assay: flow cytometry, HEK293/D9/mfCD40 cells
T4 construct: whole, on cells; also called monkey CD40
Description: as §3, §4

[6] = target: T1, mouse CD40 extracellular domain …; assay: SPR Biacore 4000, mAb captured, 37C
Description: as §1, §2

T2 sequence (P25942 21-277): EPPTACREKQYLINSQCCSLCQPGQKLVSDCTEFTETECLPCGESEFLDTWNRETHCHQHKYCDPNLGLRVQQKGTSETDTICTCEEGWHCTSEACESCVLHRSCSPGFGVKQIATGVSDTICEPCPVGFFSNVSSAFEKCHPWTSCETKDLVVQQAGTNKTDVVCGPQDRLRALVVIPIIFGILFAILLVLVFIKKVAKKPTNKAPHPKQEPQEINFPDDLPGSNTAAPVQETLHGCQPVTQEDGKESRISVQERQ

| IC50, 900 pM hCD40L, Raji NFkB-luc [1] | Max % activation, no ligand, Raji NFkB-luc [1] | Max % inhibition, 900 pM hCD40L, Raji NFkB-luc [1] | IC50, 10 nM hCD40L, THP-1 NFkB-luc [2] | Max % activation, no ligand, THP-1 NFkB-luc [2] | Max % inhibition, 10 nM hCD40L, THP-1 NFkB-luc [2] | 100 nM Ag Bound [3] | Kd [3] | koff [3] | kon [3] | t1/2 [3] | EC50 [4] | MFI at 100 nM [4] | EC50 [5] | MFI at 100 nM [5] | 100 nM Ag Bound [6] | EC50, no ligand, Raji NFkB-luc [1] | EC50 (potentiation), 10 nM hCD40L, THP-1 NFkB-luc [2] | Binder |
| --- | --- | --- | --- | --- | --- | --- | --- | --- | --- | --- | --- | --- | --- | --- | --- | --- | --- | --- |
| 1.07e-10 M | 13% | 82% | 0.287 nM | 2% | 98% | 61.2 RU | 0.101 nM | 0.000149 s⁻¹ | 1.47e+06 M⁻¹ s⁻¹ | 77.5 min | 1.9 nM | 3850 MFI | 8.4 nM | 43100 MFI |  |  |  | B1 |
| 1.02e-10 M | 5% | 68% | 0.148 nM | 6% | 97% | 56.6 RU | 0.163 nM | 0.000125 s⁻¹ | 769000 M⁻¹ s⁻¹ | 92.3 min | 1.1 nM | 3850 MFI | 2.1 nM | 48700 MFI |  |  |  | B2 |
| 6.05e-11 M | 15% | 92% | 0.276 nM | 5% | 99% | 105 RU | 19.4 nM | 0.0123 s⁻¹ | 635000 M⁻¹ s⁻¹ | 0.9 min | 1.5 nM | 2410 MFI | 10 nM | 11500 MFI | 1.6 RU |  |  | B3 |
| 7.7e-11 M | 25% | 81% | 0.437 nM | 1% | 97% | 67.2 RU | 69.9 nM | 0.0803 s⁻¹ | 1.15e+06 M⁻¹ s⁻¹ | 0.1 min | 0.8 nM | 2450 MFI | 3.7 nM | 24100 MFI | 0.2 RU | > 100 nM |  | B4 |
| 8.95e-12 M | 9% | 67% |  | 2% | -61% | 66.5 RU | 6 nM | 0.00372 s⁻¹ | 620000 M⁻¹ s⁻¹ | 3.1 min | 0.45 nM | 2620 MFI | 1 nM | 33900 MFI | 0.2 RU |  | 0.00251 nM | B5 |

Source: US20250277048A1 (Regeneron, published 2025)
